{
  "source": "patent US20120213763A1",
  "about": "(COUNCIL OF SCIENTIFIC AND INDUSTRIAL RESEARCH, published 2012)",
  "key": {"[1]": {"biological_target": "T1, PEGylated SK S105C (SEQ ID NO 33)", "T1 chain": "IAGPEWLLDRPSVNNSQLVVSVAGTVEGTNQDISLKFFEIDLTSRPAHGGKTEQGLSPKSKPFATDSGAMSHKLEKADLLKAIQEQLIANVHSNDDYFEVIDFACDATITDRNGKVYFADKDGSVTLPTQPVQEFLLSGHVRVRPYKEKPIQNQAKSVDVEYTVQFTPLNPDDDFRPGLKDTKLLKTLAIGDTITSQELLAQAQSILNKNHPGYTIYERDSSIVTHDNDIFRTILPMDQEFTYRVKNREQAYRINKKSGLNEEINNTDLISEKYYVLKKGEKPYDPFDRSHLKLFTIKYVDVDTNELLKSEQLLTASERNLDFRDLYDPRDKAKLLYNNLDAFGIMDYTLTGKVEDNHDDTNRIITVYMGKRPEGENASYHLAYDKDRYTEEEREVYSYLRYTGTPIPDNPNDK"}, "[2]": {"biological_target": "T2, PEGylated SK D173C (SEQ ID NO 39)", "T2 chain": "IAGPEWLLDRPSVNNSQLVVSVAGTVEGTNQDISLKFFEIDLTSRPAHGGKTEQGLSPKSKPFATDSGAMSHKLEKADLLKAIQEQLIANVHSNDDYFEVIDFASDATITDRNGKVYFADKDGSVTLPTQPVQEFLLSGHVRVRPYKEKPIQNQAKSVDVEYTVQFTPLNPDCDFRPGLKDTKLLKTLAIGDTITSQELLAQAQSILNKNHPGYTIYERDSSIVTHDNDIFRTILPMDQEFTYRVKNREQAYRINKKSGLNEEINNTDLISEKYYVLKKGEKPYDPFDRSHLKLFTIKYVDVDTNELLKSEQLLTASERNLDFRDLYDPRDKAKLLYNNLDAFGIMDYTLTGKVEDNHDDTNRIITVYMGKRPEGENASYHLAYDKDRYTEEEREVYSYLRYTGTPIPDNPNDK"}, "[3]": {"biological_target": "T3, PEGylated SK D96C (SEQ ID NO 31)", "T3 chain": "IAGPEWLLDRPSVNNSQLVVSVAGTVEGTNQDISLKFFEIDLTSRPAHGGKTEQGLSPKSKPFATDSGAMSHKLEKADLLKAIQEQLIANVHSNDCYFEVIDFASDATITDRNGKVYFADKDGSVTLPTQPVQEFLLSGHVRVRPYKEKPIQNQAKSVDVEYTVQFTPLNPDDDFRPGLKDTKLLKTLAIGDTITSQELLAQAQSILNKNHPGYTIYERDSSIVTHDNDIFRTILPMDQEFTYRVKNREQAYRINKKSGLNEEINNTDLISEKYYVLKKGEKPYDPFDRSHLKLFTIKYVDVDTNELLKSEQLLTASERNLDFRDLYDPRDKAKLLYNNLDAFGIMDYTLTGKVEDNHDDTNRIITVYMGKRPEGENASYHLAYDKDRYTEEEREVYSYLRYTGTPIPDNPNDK"}, "[4]": {"biological_target": "T4, bi-pegylated NC 1-414 (SEQ ID NO 491), Cys at N - 1 and at C + 1 position in SK", "T4 chain": "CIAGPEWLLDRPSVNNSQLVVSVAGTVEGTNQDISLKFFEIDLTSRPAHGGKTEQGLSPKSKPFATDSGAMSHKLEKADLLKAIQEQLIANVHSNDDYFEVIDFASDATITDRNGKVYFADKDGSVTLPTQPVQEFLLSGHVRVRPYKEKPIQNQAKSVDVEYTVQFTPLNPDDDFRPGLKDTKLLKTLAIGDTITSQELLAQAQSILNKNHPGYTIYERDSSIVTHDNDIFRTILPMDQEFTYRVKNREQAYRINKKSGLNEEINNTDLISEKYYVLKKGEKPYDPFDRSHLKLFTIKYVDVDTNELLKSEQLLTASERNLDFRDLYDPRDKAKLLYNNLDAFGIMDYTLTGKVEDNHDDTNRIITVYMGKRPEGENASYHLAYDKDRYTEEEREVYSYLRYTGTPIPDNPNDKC"}, "[5]": {"biological_target": "T5, PEGylated SK L260C (SEQ ID NO 50)", "T5 chain": "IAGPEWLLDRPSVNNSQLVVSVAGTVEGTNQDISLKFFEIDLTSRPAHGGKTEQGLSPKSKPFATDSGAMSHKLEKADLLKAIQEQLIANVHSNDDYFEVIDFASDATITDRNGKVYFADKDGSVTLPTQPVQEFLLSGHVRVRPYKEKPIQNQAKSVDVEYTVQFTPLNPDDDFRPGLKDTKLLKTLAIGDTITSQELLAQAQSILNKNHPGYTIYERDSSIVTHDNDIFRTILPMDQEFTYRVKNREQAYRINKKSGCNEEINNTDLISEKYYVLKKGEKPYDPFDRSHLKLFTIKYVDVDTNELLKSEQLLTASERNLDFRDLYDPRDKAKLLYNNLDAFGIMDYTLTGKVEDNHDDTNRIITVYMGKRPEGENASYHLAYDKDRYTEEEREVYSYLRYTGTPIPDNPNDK"}},
  "data": [
    {"protein": "human plasminogen (HPG) (protein) KVYLSECKTGNGKNYRGTMSKTKNGITCQKWSSTSPHRPRFSPATHPSEGLEENYCRNPDNDPQGPWCYTTDPEKRYDYCDILECEEECMHCSGENYDGKISKTMSGLECQAWDSQSPHAHGYIPSKFPNKNLKKNYCRNPDRELRPWCFTTDPNKRWELCDIPRCTTPPPSSGPTYQCLKGTGENYRGNVAVTVSGHTCQHWSAQTPHTHNRTPENFPCKNLDENYCRNPDGKRAPWCHTTNSQVRWEYCKIPSCDSSPVSTEQLAPTAPPELTPVVQDCYHGDGQSYRGTSSTTTTGKKCQSWSSMTPHRHQKTPENYPNAGLTMNYCRNPDADKGPWCFTTDPSVRWEYCNLKKCSGTEASVVAPPPVVLLPDVETPSEEDCMFGNGKGYRGKRATTVTGTPCQDWAAQEPHRHSIFTPETNPRAGLEKNYCRNPDGDVGGPWCYTTNPRKLYDYCDVPQCAAPSFDCGKPQVEPKKCPGRVVGGCVAHPHSWPWQVSLRTRFGMHFCGGTLISPEWVLTAAHCLEKSPRPSSYKVILGAHQEVNLEPHVQEIEVSRLFLEPTRKDIALLKLSSPAVITDKVIPACLPSPNYVVADRTECFITGWGETQGTFGAGLLKEAQLPVIENKVCNRYEFLNGRVQSTELCAGHLAGGTDSCQGDSGGPLVCFEKDKYILQGVTSWGLGCARPNKPGVYVRVSRFVTWIEGVMRNN", "values": [
      {"measurement": "Km", "setting": "[1]", "value": 0.5, "unit": "µM"},
      {"measurement": "Km", "setting": "[2]", "value": 0.4, "unit": "µM"},
      {"measurement": "Km", "setting": "[3]", "value": 0.5, "unit": "µM"},
      {"measurement": "Km", "setting": "[4]", "value": 0.42, "unit": "µM"},
      {"measurement": "Km", "setting": "[5]", "value": 0.6, "unit": "µM"}
    ]}
  ]
}
